Measurements reported in US11491212.

B1: FIXa-D104N/K106S/R318Y/R338E/T343R/R403E/E410N (protein)
chain 1: not shown
chain 2: not shown
B2: FIXa-K247N/N249S/N260S/R318Y/R338E/R403E/E410N (protein)
chain 1: not shown
chain 2: not shown
B3: FIXa-R318Y/R338E/R403E/E410N/T412A (protein)
chain 1: not shown
chain 2: not shown
B4: FIXa-R318Y/R338E/N346Y/R403E/E410N (protein)
chain 1: not shown
chain 2: not shown
B5: FIXa-R318Y/R338E/E410N/T412V (protein)
chain 1: not shown
chain 2: not shown
B6: FIXa-R318Y/R338E/R403E/E410S (protein)
chain 1: not shown
chain 2: not shown
B7: FIXa-Y155F/R318Y/R338E/T343R/R403E/E410N (protein)
chain 1: not shown
chain 2: not shown
B8: FIXa-D104N/K106S/K228N/K247N/N249S/R318Y/R338E/R403E/E410N (protein)
chain 1: not shown
chain 2: not shown
B9: FIXa-K228N/K247N/N249S/R318Y/R338E/R403E/E410N (protein)
chain 1: not shown
chain 2: not shown
B10: FIXa-R318Y/R338E/R403E/E410N/T412V (protein)
chain 1: not shown
chain 2: not shown
B11: FIXa-R318Y/R338E/T343R/N346Y/R403E/E410N (protein)
chain 1: not shown
chain 2: not shown
B12: FIXa-R318Y/R338E/T343R/R403E/E410N (protein)
chain 1: not shown
chain 2: not shown

What follows are proteins tested against Factor X (FX), P00742.
Sequence of Factor X (FX), P00742 (P00742 whole entry, looked up): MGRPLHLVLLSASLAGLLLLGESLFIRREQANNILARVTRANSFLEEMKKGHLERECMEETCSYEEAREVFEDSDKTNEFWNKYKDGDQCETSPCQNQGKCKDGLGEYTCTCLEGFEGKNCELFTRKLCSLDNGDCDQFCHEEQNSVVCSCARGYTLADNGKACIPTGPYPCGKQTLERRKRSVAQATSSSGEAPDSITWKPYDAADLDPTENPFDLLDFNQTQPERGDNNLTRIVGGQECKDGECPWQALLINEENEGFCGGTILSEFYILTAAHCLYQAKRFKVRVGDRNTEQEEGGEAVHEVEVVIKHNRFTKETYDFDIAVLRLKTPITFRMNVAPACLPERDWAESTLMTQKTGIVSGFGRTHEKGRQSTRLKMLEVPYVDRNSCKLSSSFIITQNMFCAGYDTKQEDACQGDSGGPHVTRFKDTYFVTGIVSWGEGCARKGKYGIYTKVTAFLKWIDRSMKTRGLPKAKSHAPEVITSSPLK

Protein	KM	kcat	% of WT kcat/KM (against Catalyst Biosciences WT FIXa), FX activation in the Xase complex	KM (nM) for activation of FX by FIXa in the Xase complex (FVIIIa, PC/PS vesicles, Ca2+), fluorogenic Spectrafluor FXa assay	kcat/KM for FX activation by FIXa in the Xase complex (FVIIIa, PC/PS vesicles, Ca2+), indirect fluorogenic Spectrafluor FXa assay	% of WT kcat/KM (against Catalyst Biosciences WT FIXa)	kcat/KM for activation of FX by FIXa in the Xase complex (FVIIIa, PC/PS vesicles, Ca2+), fluorogenic Spectrafluor FXa read-out
B1	0.0266 µM	5.7 s⁻¹	–	–	–	–	–
B2	0.0474 µM	3.4 s⁻¹	217%	62.2 nM	9.7e+07 M⁻¹ s⁻¹	–	–
B3	0.0344 µM	7.8 s⁻¹	–	–	–	–	–
B4	0.0281 µM	3.4 s⁻¹	–	–	–	–	–
B5	0.0236 µM	5.2 s⁻¹	536%	–	2.4e+08 M⁻¹ s⁻¹	–	–
B6	0.0364 µM	–	–	–	–	458%	2.1e+08 M⁻¹ s⁻¹
B7	0.0272 µM	7.8 s⁻¹	–	–	–	–	–
B8	0.0533 µM	–	–	–	–	–	–
B9	0.0497 µM	–	–	–	–	352%	1.6e+08 M⁻¹ s⁻¹
B10	0.0483 µM	7 s⁻¹	–	–	–	–	–
B11	0.0158 µM	4.6 s⁻¹	–	–	–	–	–
B12	0.0247 µM	9.7 s⁻¹	1217%	22.3 nM	5.4e+08 M⁻¹ s⁻¹	–	–

Each protein was assayed against Factor X, P00742.
Sequence of Factor X, P00742 (P00742 whole entry, looked up): as above

Protein	kcat/KM	kcat
B1	2.2e+08 M⁻¹ s⁻¹	–
B2	6.7e+07 M⁻¹ s⁻¹	–
B3	2.5e+08 M⁻¹ s⁻¹	–
B4	1.2e+08 M⁻¹ s⁻¹	–
B5	2.6e+08 M⁻¹ s⁻¹	–
B6	–	7.4 s⁻¹
B7	3e+08 M⁻¹ s⁻¹	–
B8	1.1e+08 M⁻¹ s⁻¹	6.1 s⁻¹
B9	–	7.1 s⁻¹
B10	1.6e+08 M⁻¹ s⁻¹	–
B11	3.1e+08 M⁻¹ s⁻¹	–
B12	4.2e+08 M⁻¹ s⁻¹	–
